This note sets out measurements from patent publication EP4574844A1 (Numab Therapeutics AG, dated 2025).

A word on the koff: it is the first-order rate constant of dissociation. Broadly, the kon is the second-order rate constant of association. One may read the EC50 as the concentration needed to bring the measured effect to its halfway point. Low readings indicate an effect from little substance, high ones a need for much substance. In general, IC50 refers to the concentration that inhibits the measured activity by half. Low readings indicate inhibition by little substance, high ones a need for much substance.

Test [1] addresses T1, recombinant human PDL1 (human, UniProt Q9NZQ7 19-238, limits assumed).
T1 construct: SPR antigen; also called CD274; B7-H1
The test is described as follows: SPR. In general terms: Surface plasmon resonance follows binding to a sensor surface in real time, without labels.

Test [2] concerns the target T2, recombinant cynomolgus PDL1 (cynomolgus monkey, UniProt G7PSE7 19-238).
T2 construct: also called cynom; PDL1
Put plainly: SPR.

In test [3] the target is T3, human PD-L1 on the cell surface (human, UniProt Q9NZQ7 19-290). Put plainly: cell-based or functional assay.
The target in test [4] is T4, Fc-tagged human PDL2 (human, UniProt Q9BQ51 20-220, limits assumed).
T4 sequence (looked up): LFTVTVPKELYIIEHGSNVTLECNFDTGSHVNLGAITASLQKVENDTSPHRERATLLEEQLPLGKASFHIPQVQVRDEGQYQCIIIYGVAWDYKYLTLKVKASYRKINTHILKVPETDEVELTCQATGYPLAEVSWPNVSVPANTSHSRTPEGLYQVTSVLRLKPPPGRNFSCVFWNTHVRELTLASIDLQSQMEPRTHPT
Put plainly: SPR, Fc-tagged human PDL2 captured, scFv as analyte.

The target of test [5] is T5, human LILRB2 on the cell surface (human, UniProt Q8N423 22-597). Put plainly: cell-based or functional assay.
T5 sequence (Q8N423 22-597): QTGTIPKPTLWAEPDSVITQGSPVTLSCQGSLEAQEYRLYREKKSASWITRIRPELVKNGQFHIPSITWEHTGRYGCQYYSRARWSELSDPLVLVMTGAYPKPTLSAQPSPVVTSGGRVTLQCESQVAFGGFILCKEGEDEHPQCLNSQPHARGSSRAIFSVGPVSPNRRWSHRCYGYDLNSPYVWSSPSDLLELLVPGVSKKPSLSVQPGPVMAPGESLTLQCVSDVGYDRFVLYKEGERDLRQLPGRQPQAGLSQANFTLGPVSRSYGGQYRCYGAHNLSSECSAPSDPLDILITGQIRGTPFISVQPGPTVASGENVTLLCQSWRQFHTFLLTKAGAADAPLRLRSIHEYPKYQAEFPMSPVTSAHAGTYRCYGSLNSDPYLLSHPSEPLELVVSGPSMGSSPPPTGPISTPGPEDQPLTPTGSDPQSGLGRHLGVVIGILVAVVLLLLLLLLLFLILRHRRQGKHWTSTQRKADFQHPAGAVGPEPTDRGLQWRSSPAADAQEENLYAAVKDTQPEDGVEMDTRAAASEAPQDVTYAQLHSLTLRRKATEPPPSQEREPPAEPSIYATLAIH
The target of test [6] is T5, human LILRB2 on the cell surface. The test is described as follows: cell-based or functional assay. The source holds these as a separate data set.
Test [7] concerns the target T6, human CD47 on the cell surface (human, UniProt Q08722 19-323). The test is described as follows: cell-based or functional assay.
The target in test [8] is T3, human PD-L1 on the cell surface. Put plainly: cell-based or functional assay. The source holds these as a separate data set.
Test [9] addresses T6, human CD47 on the cell surface. The test is described as follows: cell-based or functional assay. The source holds these as a separate data set.
Test [10] deals with T2, recombinant cynomolgus PDL1. Put plainly: SPR, antigen immobilised, antibody as analyte.
The target in test [11] is recombinant human CD47 (human, UniProt Q08722 19-139, limits assumed). Put plainly: SPR, antigen immobilised, antibody as analyte.
In test [12] the target is T7, recombinant cynomolgus CD47 (cynomolgus monkey, UniProt A0A2K5X523 19-139).
T7 construct: also called cynom; CD47
Put plainly: SPR, antigen immobilised, antibody as analyte.

Test [13] deals with T1, recombinant human PDL1. Put plainly: SPR, antigen immobilised, antibody as analyte.
The target in test [14] is T8, recombinant human LILRB2 (human, UniProt Q8N423 22-460, limits assumed).
T8 construct: also called ILT4
T8 sequence (Q8N423 22-460 limits assumed): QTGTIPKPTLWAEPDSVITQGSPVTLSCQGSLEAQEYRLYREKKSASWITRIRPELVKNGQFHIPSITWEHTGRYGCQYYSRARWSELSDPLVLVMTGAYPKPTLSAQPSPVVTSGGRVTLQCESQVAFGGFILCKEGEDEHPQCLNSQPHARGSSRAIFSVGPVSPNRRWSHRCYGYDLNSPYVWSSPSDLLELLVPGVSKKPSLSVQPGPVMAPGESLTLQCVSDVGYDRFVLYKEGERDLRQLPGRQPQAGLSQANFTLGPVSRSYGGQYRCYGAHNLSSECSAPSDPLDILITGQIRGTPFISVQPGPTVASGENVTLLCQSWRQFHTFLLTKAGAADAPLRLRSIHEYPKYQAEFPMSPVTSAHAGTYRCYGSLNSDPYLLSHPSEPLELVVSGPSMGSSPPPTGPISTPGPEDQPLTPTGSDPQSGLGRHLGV
The test is described as follows: SPR, antibody captured by anti-framework IgG, antigen as analyte (without avidity).

The target in test [15] is T8, recombinant human LILRB2. The test is described as follows: SPR, LILRB2 immobilised, scFv as analyte.
For test [16], the target named is T5, human LILRB2 on the cell surface. Put plainly: flow cytometry, CHO K1 cells expressing human LILRB2. For orientation: In flow cytometry, cells or beads pass a laser one at a time.
Test [17] shares this target. Put plainly: flow cytometry, CHO cells expressing LILRB2; competitor HLA-G tetramer.
For test [18] the target is unchanged. The test is described as follows: flow cytometry, CHO cells expressing LILRB2; competitor HLA-A0301 dextramer.
The target is the same in test [19]. Put plainly: flow cytometry, CHO cells expressing LILRB2; competitor HLA-G tetramer; reference PRO2518.

T2 sequence (G7PSE7 entry or part of it): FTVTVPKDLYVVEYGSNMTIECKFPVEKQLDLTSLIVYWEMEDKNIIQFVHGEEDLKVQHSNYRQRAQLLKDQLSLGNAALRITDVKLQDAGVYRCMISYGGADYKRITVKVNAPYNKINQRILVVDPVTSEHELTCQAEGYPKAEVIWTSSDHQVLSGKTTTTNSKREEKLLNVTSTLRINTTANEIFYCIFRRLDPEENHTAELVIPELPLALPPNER

B1: PRO1392 (scFv)
scFv: DIQMTQSPSSLSASVGDRVTITCQASQSINDYLAWYQQKPGKAPKLLIYKASTLASGVPSRFSGSGSGTDFTLTISSLQPEDFATYYCQQGYIITDIDNVFGTGTKVTVLGGGGGSGGGGSGGGGSGGGGSQVQLQESGPGLVKPSETLSLTCKASGFSFSSGYDMCWVRQPPGKGLEWIACVVAGSVDITYYASWAKGRVTISKDSSKNQVSLKLSSVTAADTAVYYCARKDAYSDAFNLWGQGTLVTVSS
notes: anti-PDL1 scFv (VL-linker-VH); also called 33-03-G02-sc18
In the case of B1, in [1], the Kd is 0.0086 nM, the koff was determined as 4.8e-05 s⁻¹ and the kon turned out to be 5.6e+06 M⁻¹ s⁻¹. For the same molecule, in test [2], the Kd came out at 0.0065 nM, the koff was determined as 3.4e-05 s⁻¹ and the kon was 5.2e+06 M⁻¹ s⁻¹. Also, in [3], the “PDL1/PD-1 EC50 [nM], NFAT reporter gene assay” value came to 0.97 nM and the “PDL1/PD-1 Max. inhibition (rel. to avelumab) [%]” value amounted to 104%. The binding result in [4] was “no binding (tested: 180 nM)”.

B2: PRO5055 (antibody, human IgG1, kappa)
chain: DVQMTQSPSSLSASVGDRVTITCQASQSISSWVSWYQQKPGKPPKLLIYRGGYLESGVPSRFSASGSGTDFTLTISSLQPEDFATYYCQSTDSSTYGGAFGCGTKVTVLGGGGGSGGGGSGGGGSGGGGSQQVVESGGGLVQPGGSLRLSCAVSGIDLNSYAMTWVRQAPGKCLEWIGYIGSASSTYYASWASGRFTISKDNSKNTVYLQMNSLRAEDSAVYFCARGSTYINIWGQGTLVKVSSEPKSSDKTHTCPPCPAPELLGGPSVFLFPPKPKDTLMISRTPEVTCVVVDVSHEDPEVKFNWYVDGVEVHNAKTKPREEQYNSTYRVVSVLTVLHQDWLNGKEYKCKVSNKALPAPIEKTISKAKGQPREPQVYTLPPCREEMTKNQVSLSCAVKGFYPSDIAVEWESNGQPENNYKTTPPVLDSDGSFFLVSKLTVDKSRWQQGNVFSCSVMHEALHNHYTQKSLSLSPGKGGGGSGGGGSDVQMTQSPSSLSASVGDRVTITCQASQSIGSNLAWYQQKPGKPPKLLIYKGGTLESGVPSRFSGSGSGTDFTLTISSLQPEDFATYYCQSTAGSSRSGNYGYVFGCGTKVTVLGGGGGSGGGGSGGGGSGGGGSQQLVESGGGLVQPGGSLRLSCAASGFSFTNNYYMCWVRQAPGKCLEWIACMLVGAWGNTYYASWANGRFTISKDNSKNTVYLQMNSLRAEDSAVYFCARARDYTWTLGGDPETSGFNLWGQGTLVKVSS
heavy: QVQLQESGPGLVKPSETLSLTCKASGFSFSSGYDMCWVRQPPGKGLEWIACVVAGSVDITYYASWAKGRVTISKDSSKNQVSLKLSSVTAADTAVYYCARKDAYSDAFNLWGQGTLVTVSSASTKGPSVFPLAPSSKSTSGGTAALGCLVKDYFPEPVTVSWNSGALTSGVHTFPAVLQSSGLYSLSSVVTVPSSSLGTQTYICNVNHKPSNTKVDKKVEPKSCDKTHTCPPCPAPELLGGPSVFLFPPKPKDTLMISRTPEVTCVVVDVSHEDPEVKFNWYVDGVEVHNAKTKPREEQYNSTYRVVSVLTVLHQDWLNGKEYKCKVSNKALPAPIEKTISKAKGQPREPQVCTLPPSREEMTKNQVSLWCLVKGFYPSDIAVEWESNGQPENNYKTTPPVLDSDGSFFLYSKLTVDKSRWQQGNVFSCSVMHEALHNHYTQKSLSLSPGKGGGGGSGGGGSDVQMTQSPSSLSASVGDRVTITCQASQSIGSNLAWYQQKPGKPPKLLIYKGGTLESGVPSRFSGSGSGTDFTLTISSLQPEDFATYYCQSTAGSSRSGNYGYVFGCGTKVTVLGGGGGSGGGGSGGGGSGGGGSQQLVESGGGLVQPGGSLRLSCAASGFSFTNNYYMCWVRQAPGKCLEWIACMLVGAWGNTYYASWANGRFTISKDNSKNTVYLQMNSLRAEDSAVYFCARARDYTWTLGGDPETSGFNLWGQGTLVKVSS
light: DIQMTQSPSSLSASVGDRVTITCQASQSINDYLAWYQQKPGKAPKLLIYKGGTLASGVPSRFSGSGSGTDFTLTISSLQPEDFATYYCQQGYIITDIDNVFGQGTKVEIKRTVAAPSVFIFPPSDEQLKSGTASVVCLLNNFYPREAKVQWKVDNALQSGNSQESVTEQDSKDSTYSLSSTLTLSKADYEKHKVYACEVTHQGLSSPVTKSFNRGEC
notes: trispecific anti-PDL1 x CD47 x LILRB2; PDL1-BD as Fab; also called PRO4687 with 33-03-G02-based PDL1-BD
As to B2, in test [5], the “CD86 EC50 [nM], re-polarization of M2 macrophages” value is 0.085 nM; the “CD163 EC50 [nM], re-polarization of M2 macrophages” value came to 0.058 nM; the “CD206 EC50 [nM], re-polarization of M2 macrophages” value was 0.128 nM. In test [6], the “IL-1β EC50 [nM], LPS-driven cytokine secretion” value was determined as 0.0705 nM; the “IL-6 EC50 [nM], LPS-driven cytokine secretion” value came out at 0.063 nM; the “TNF-α EC50 [nM], LPS-driven cytokine secretion” value stood at 0.141 nM. The “CD47 driven EC50 [nM], phagocytosis of A375 cells” value in [7] is 12.1 nM. The “PD-L1 driven EC50 [nM], phagocytosis of H292 cells” value in [8] turned out to be 0.19 nM. In addition, in test [9], the “CD47 driven EC50 [nM], phagocytosis of H292 cells” value was found to be 10.9 nM and the “CD47 driven EC50 [nM], phagocytosis of RBCs” value worked out at 44.6 nM. The Kd in [10] worked out at 0.0084 nM. In [11], the Kd worked out at 21 nM, the koff came to 0.011 s⁻¹ and the on-rate constant (kon) was found to be 510000 M⁻¹ s⁻¹. For the same molecule, in test [12], the Kd was found to be 21 nM. Also, in [13], the Kd was found to be 0.016 nM, the koff came to 3.3e-05 s⁻¹ and the on-rate (kon) is 2.2e+06 M⁻¹ s⁻¹. In [14], the Kd stood at 0.35 nM, the koff came to 9.2e-05 s⁻¹ and the kon turned out to be 260000 M⁻¹ s⁻¹.

B3: PRO3744 (scFv)
scFv: DVQMTQSPSSLSASVGDRVTITCQASQSIGSNLAWYQQKPGKPPKLLIYKGGTLESGVPSRFSGSGSGTDFTLTISSLQPEDFATYYCQSTAGSSRSGNYGYVFGCGTKVTVLGGGGGSGGGGSGGGGSGGGGSQQLVESGGGLVQPGGSLRLSCAASGFSFTNNYYMCWVRQAPGKCLEWIACMLVGAWGNTYYASWANGRFTISKDNSKNTVYLQMNSLRAEDSAVYFCARARDYTWTLGGDPETSGFNLWGQGTLVKVSS
notes: anti-LILRB2 scFv; also called 68-18-E11-sc07
On to B3, for which, in test [15], the Kd is 0.148 nM, the koff amounted to 0.000114 s⁻¹ and the kon is 771000 M⁻¹ s⁻¹. The molecule further returned an EC50 in [16] of 0.881 nM. In addition, the IC50 in [17] worked out at 0.973 nM. This molecule also returned an IC50 in [18] of 0.893 nM. Also, the “Rel. max. inhibition % (rel. to J-19)” value in [19] is 99.1%.

B4: PRO3696 (scFv)
scFv: DVQMTQSPSSLSASVGDRVTITCQASQSIGLNLAWYQQKPGKPPKLLIYAGGYLASGVSSRFSGSGSGTDFTLTISSLQPEDFATYYCQSTYDGSSFVFAFGTGTKVTVLGGGGGSGGGGSGGGGSGGGGSQEQLVESGGGLVQPGGSLRLSCAASGFSFSSSSYMCWVRQAPGKGLEWIACMVTGSSDDTDYASWAKGRFTISKDNSKNTVYLQMNSLRAEDSAVYFCARAGSAPLWGQGTLVKVSS
notes: anti-LILRB2 scFv; also called 69-01-E02-sc06
As for B4, in test [15], the Kd was 0.226 nM, the koff came out at 0.000166 s⁻¹ and the kon was found to be 736000 M⁻¹ s⁻¹. This molecule came in with a concentration for a half-maximal effect (EC50) in test [16] of 0.796 nM. Also, the half-inhibitory concentration (IC50) in [17] came out at 1.08 nM. The IC50 in test [18] came out at 0.867 nM. Also, in test [19], the “Rel. max. inhibition % (rel. to J-19)” value worked out at 98.4%.

B5: PRO1347 (scFv)
scFv: DIQMTQSPASLSASVGDRVTITCQASQSIGTYLAWYQQKPGKPPKLLIYRAFILASGVPSRFSGSGSGTDFTLTISSLQPEDFATYYCQSNFYSDSTTIGPNAFGTGTKVTVLGGGGGSGGGGSGGGGSGGGGSEVQLVESGGGLVQPGGSLRLSCAASGFSFNSDYWIYWVRQAPGKGLEWIACIYGGSSGNTQYASWAQGRFTISRDNSKNTVYLQMNSLRAEDTAVYFCARGYVDYGGATDLWGQGTLVTVSS
notes: anti-PDL1 scFv; also called 37-20-B03-sc09
For B5, in test [1], the Kd turned out to be 0.0109 nM, the koff was found to be 6.64e-05 s⁻¹ and the kon stood at 7.38e+06 M⁻¹ s⁻¹. In addition, in [2], the Kd worked out at 0.0127 nM, the koff was 8.77e-05 s⁻¹ and the kon worked out at 6.88e+06 M⁻¹ s⁻¹. In addition, in [3], the “PDL1/PD-1 EC50 [nM], NFAT reporter gene assay” value came out at 0.28 nM and the “PDL1/PD-1 Max. inhibition (rel. to avelumab) [%]” value worked out at 100%. For the same molecule, the binding result in [4] is “no binding (tested: 180 nM)”.
